Assays:
pNPB = assay: Proxy for plastic degradation [Residual activity]; conditions: pH 8, part of the chain shown
[1] = Melting temperature [CD spectroscopy]; conditions: pH 8.5; part of the chain shown

B1: unnamed (protein)
chain: ANPYERGPNPTDALLEARSGPFSVSEENVSRLSASGFGGGTIYYPRENNTYGAVAISPGYTGTEASIAWLGERIASHGFVVITIDTITTLDQPDSRAEQLNAALNHMINRASSTVRSRIDSSRLAVMGHSMGGGGSLRLASQRPDLKAAIPLTPWHLNKNWSSVTVPTLIIGADLDTIAPVATHAKPFYNSLPSSISKAYLELDGATHFAPNIPNKIIGKYSVAWLKRFVDNDTRYTQFLCPGPRDGLFGEVEEYRSTCPFY
With B1 the “Proxy for plastic degradation” value (pNPB; 25 °C) was 100%, the “Proxy for plastic degradation” value (pNPB; 30.7 °C) was 110% and the “Proxy for plastic degradation” value (pNPB; 40.2 °C) was 95%. For the same protein, the “Proxy for plastic degradation” value (pNPB; 50.6 °C) was 115%, the “Proxy for plastic degradation” value (pNPB; 54.9 °C) was 85% and the “Proxy for plastic degradation” value (pNPB; 59.5 °C) was 65%. For the same protein, the “Proxy for plastic degradation” value (pNPB; 65.6 °C) was 2%, the “Proxy for plastic degradation” value (pNPB; 68.6 °C) was 1% and the “Proxy for plastic degradation” value (pNPB; 74.8 °C) was 0%. For the same protein, the “Proxy for plastic degradation” value (pNPB; 78.8 °C) was 0%.

B2: unnamed (protein)
chain: ANPYERGPNPTDALLEARSGPFSVSEENVSRLSASGFGGGTIYYPRENNTYGAVAISPGYTGTEASIAWLGERIASHGFVVITIDTITTLDQPDSRAEQLNAALNHMINRASSTVRSRIDSSRLAVMGHSMGGGGSLRLASQRPDLKAAIPLTPWHLNKNWSSVTVPTLIIGADLDTIAPVATHAKPFYNSLPSSISKAYLELDGATHFAPNIPNKIIGKYSVAWLKRFVDNDTRYTQFLCPGPRDGLFGEVEEYRSTCPF
In the case of B2, the Melting temperature [1] is reported as 70 °C.
